Data set [1] deals with T1, GST-Pti5 (Solanum lycopersicum, UniProt O04681 O04681:1-161). Kind of data set: EMSA; 25 mM Hepes pH 7.5, 40 mM KCl, 0.1 mM EDTA, 10% glycerol, 1 mM DTT, poly(dA-dT), room temp; WT sequence printed with stray 'to' in the middle. The following applies: tags: N-terminal GST (pGEX, E. coli PR745; cDNA nt 82-782); label: 32P end label. The procedure:
(§1) The wild type gln2 PR-box 2x ([…] to […]) and mutated PR-box 2x ([…]) were end-labeled by 32P as described by Ausubel, F. M., Brent, R., Kingston, R. E., Moore, D. D., Seidman, J. G., Smith, J. A., and Struhl, K. (1994). Current Protocols in Molecular Biology. (New York: Greene Publish Associates/John Wiley and Sons). Four fmol of probe was mixed with each of the purified GST-fusion proteins in a buffer containing 2 μg poly(dA-dT) (dA-dT), 25 mM Hepes (PH7.5), 40 mM KCl, 0.1 mM EDTA, 10% glycerol, and 1 mM DTT, incubated at room temperature for 15 minutes, and electrophoresed on a 4% polyacrylamide gel in 0.25×TBE buffer. Ohme-Takagi, M. and Shinshi, H. (1995). Ethylene-inducible DNA-binding proteins that interact with an ethylene-responsive element. Plant Cell 7, 173-182. The gel was subsequently dried and exposed to x-ray film. […] In contrast to GST-Pti5 and GST-Pti6, neither GST-Ptil nor GST itself bound to the PR-box.

In data set [2] the target is T1, GST-Pti5. The experiment in a line: EMSA; no binding detected. The following applies: tags: N-terminal GST (pGEX, E. coli PR745; cDNA nt 82-782); label: 32P end label. The protocol:
as §1

Data on two molecules can be found in patent US20030084477, “Genes enhancing disease resistance in plants” (published 2003).

T1 sequence (O04681 whole entry, the tested form may be a part, one chain of several): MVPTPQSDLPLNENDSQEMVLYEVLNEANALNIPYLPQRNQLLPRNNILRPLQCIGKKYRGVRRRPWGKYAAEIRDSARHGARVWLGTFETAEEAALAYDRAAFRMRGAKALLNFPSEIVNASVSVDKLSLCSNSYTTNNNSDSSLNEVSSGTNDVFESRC

B1: wild type gln2 PR-box 2x (dsDNA)
DNA 1: CATAAGAGCCGCCACTAAAATAAGACCGATCAAATAAGAGCCGCCAT
DNA 2: ATGGCGGCTCTTATTTGATCGGTCTTATTTTAGTGGCGGCTCTTATG
Turning to B1, in the data set with GST-Pti5 [1], the binding result is “binds”.

B2: mutated PR-box 2x (dsDNA)
DNA 1: CATAAGATCCTCCACTAAAATAAGACCGATCAAATAAGATCCTCCAT
DNA 2: ATGGAGGATCTTATTTGATCGGTCTTATTTTAGTGGAGGATCTTATG
As to B2, the binding result with GST-Pti5 [2] was “no binding”.
